Assay results published in patent US20100081620A1 (BIOZYME, published 2010).
Where two headings read alike, the source gives them in different places.

T1: Human ADAM10 protease containing the catalytic/disintegrin domains (human, UniProt O14672 214-672, limits assumed)
T1 construct: domain: catalytic/disintegrin domains; Bought; also called ADAM 10 (human) Cat/Dis; ADAM10 catalytic/disintegrin construct
T1 sequence (looked up): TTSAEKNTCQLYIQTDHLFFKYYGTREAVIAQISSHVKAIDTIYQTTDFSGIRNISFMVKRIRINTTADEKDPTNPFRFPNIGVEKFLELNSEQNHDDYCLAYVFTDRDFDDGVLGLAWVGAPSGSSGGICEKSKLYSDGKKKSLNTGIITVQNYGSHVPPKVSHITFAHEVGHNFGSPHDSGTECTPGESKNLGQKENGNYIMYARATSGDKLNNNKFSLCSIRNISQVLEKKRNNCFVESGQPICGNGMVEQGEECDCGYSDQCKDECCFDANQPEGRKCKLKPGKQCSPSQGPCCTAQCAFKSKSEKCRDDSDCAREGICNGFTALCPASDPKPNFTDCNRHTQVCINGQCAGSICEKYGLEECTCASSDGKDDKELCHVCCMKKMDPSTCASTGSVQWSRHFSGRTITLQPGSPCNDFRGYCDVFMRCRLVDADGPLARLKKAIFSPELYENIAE

T2: human ADAM 9 catalytic/disintegrin domains (human, UniProt Q13443 206-697, limits assumed)
T2 construct: domain: catalytic/disintegrin domains; Bought; also called ADAM 9 (human)
T2 sequence (looked up): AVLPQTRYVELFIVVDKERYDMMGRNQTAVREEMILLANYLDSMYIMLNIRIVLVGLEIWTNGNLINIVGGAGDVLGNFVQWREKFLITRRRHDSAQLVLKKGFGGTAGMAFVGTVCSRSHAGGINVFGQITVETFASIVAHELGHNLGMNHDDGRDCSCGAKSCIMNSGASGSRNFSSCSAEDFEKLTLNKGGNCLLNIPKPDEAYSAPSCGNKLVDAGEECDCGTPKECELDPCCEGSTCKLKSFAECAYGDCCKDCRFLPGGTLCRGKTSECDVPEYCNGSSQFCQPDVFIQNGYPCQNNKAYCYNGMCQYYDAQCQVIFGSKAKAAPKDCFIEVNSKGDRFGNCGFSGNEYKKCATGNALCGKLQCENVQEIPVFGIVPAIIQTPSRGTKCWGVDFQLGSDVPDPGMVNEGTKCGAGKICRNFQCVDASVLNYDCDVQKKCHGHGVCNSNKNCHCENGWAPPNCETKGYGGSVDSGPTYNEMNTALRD

T3: ADAM 8 catalytic domain (mouse) (mouse, UniProt Q05910 196-395, limits assumed)
T3 construct: domain: catalytic domain; also called ADAM 8 (mouse); ADAM 8 (mouse) Cat
T3 sequence (looked up): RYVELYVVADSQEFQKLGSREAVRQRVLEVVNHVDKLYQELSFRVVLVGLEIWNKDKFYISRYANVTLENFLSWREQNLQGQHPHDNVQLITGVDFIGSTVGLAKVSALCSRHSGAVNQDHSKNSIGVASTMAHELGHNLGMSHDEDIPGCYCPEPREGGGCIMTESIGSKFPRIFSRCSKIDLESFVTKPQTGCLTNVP


What was measured:
[1] = biological target: T4, MMP 2; experiment: enzyme inhibition, fluorescent peptide substrate
T4 construct: also called matrix metalloproteinase 2
T4 sequence (P08253 110-660): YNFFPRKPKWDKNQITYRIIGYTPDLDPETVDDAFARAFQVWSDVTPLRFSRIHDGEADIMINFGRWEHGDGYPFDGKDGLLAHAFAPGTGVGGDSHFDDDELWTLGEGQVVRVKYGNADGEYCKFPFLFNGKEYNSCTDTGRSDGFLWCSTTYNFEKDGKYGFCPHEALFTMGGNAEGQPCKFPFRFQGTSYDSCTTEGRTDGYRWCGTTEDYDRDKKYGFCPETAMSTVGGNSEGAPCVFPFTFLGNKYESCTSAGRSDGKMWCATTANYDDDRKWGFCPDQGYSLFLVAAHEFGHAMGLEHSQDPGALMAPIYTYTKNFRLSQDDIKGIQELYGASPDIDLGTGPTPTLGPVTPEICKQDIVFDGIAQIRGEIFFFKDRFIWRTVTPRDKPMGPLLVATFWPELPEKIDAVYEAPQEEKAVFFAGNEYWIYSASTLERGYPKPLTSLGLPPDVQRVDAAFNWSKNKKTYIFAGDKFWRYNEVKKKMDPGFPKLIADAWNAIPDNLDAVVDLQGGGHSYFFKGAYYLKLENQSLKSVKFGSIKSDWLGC
Experimental: (§1) Inhibition assays with TACE and ADAM 10. Activity of TACE catalytic/disintegrin, TACE catalytic, or ADAM10 catalytic/disintegrin constructs was monitored at 3 minute intervals using the fluorescent substrate, Dabcyl-LAQAHomoPheRSC(Fluorescein)-NH₂ (SEQ ID NO 17) with excitation 485 nm and emission 530 nm. The substrate was diluted from a 10 mM stock in DMSO to 10 μM in assay buffer containing 20 mM Tris, pH 8.0, and 0.0006% Brij-35. Reactions were run in a 96-well black-coated plate with either ADAM10 prodomain (10 nM-1.0 μM) alone or with enzyme. Concentrations of enzyme ranged from 0.5-2.0 nM for TACE and 5-15 nM for ADAM10. For assays with TACE and ADAM8 prodomain, the range of concentrations varied from 1-4.7 μM.
(§2) Inhibition assays with MMPs. The fluorescent substrate Dabcyl-[…](Fluorescein)-NH₂ (SEQ ID NO 18) (10 μM) in assay buffer containing 50 mM Tris, pH 7.5, 150 mM NaCl, 2 mM CaCl₂, 5 μM ZnSO₄, and 0.01% Brij-35 was used to monitor enzyme activities. MMPs 1, 2, 3, 9, 13, and 14 (0.1-20 nM) were incubated with substrate in the absence or presence of prodomain (3-30 μM). Fluorescence intensities were measured every 3-5 minutes at an emission wavelength of 530 nm (excitation 485 nm).
(§3) Inhibition assays with ADAM 9. The fluorescent substrate, Dabcyl-PchaGC(Me)HAK(Fam)-NH₂ (SEQ ID NO 19) (10 μM), in a buffer containing 25 mM Tris, pH 8.0, 0.0006% Brij-35, was used to measure human ADAM 9 catalytic/disintegrin domains activity. The ADAM 9 was provided as a 0.1 μg/μl stock solution, from which 3 μl was added to start the reaction in the absence or presence of ADAM10 prodomain (78-5000 nM). Fluorescence intensities were measured every 10-20 minutes at excitation and emission wavelengths of 485 and 530 nm respectively.

[2] = biological target: T5, MMP 1; experiment: enzyme inhibition, fluorescent peptide substrate
T5 construct: also called matrix metalloproteinase 1
T5 sequence (P03956 100-469): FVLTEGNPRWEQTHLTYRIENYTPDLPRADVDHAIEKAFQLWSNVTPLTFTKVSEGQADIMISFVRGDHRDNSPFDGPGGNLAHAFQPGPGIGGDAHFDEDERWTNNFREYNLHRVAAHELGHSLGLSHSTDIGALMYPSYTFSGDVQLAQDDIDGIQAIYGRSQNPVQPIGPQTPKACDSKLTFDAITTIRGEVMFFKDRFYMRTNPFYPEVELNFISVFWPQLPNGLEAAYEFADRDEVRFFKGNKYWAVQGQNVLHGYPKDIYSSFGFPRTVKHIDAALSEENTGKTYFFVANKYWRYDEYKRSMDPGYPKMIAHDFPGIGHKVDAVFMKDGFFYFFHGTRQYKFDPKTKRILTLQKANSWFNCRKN
Experimental: as §1, §2, §3

[3] = biological target: T6, MMP 9; experiment: enzyme inhibition, fluorescent peptide substrate
T6 construct: also called matrix metalloproteinase 9
T6 sequence (P14780 107-707): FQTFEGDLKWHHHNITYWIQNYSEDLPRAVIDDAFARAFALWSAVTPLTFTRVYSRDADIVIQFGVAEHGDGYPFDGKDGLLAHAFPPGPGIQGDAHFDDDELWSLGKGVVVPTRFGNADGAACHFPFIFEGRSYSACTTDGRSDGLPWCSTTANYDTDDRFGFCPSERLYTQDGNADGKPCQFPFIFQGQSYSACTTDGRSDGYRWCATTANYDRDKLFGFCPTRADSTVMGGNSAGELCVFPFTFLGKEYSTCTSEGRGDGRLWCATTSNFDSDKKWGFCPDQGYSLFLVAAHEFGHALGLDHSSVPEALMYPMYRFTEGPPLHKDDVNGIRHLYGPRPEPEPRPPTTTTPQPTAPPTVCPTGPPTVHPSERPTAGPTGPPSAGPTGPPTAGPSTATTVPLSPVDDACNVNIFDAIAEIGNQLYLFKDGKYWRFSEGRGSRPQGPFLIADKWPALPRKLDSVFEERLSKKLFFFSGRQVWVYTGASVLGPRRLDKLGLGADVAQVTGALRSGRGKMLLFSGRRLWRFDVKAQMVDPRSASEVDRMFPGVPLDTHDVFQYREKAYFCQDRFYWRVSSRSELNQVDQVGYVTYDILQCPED
Experimental: as §1, §2, §3

[4] = biological target: T7, MMP 13; experiment: enzyme inhibition, fluorescent peptide substrate
T7 construct: also called matrix metalloproteinase 13
Experimental: as §1, §2, §3

[5] = biological target: T8, MMP 3; experiment: enzyme inhibition, fluorescent peptide substrate
T8 construct: also called matrix metalloproteinase 3
T8 sequence (P08254 100-477): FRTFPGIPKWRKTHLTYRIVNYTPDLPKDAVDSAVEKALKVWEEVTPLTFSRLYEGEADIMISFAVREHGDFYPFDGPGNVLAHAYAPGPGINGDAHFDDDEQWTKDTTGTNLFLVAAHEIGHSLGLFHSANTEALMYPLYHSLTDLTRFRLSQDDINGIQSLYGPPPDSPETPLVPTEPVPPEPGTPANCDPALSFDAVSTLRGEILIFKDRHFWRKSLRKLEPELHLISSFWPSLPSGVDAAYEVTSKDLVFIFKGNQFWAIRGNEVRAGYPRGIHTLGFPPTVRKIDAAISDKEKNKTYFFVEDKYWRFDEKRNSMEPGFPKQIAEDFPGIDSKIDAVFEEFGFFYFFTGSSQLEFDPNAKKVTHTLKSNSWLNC
Experimental: as §1, §2, §3

[6] = biological target: T9, TACE catalytic domain (human) (human, UniProt P78536 215-477, limits assumed); experiment: enzyme inhibition, fluorescent peptide substrate
T9 construct: domain: catalytic domain; also called TACE (human) Cat
T9 sequence (P78536 215-477 limits assumed): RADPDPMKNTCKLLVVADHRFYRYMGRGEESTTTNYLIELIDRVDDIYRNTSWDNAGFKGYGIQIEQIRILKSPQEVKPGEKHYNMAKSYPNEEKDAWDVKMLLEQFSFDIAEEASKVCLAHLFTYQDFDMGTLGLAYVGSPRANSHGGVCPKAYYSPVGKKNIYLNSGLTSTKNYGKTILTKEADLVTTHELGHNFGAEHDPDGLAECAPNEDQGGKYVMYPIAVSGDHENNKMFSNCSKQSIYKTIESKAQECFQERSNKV
Experimental: as §1, §2, §3

[7] = biological target: T10, MMP 14; experiment: enzyme inhibition, fluorescent peptide substrate
T10 construct: also called matrix metalloproteinase 14
Experimental: as §1, §2, §3

[8] = biological target: T1, Human ADAM10 protease containing the …; experiment: enzyme inhibition, fluorescent peptide substrate
Experimental: as §1, §2, §3

[9] = biological target: T11, Human TACE protease containing the catalytic/disintegrin domains (human, UniProt P78536 215-671, limits assumed); experiment: enzyme inhibition, fluorescent peptide substrate
T11 construct: domain: catalytic/disintegrin domains; Bought; also called TACE (human) Cat/Dis; TACE catalytic/disintegrin
T11 sequence (P78536 215-671 limits assumed): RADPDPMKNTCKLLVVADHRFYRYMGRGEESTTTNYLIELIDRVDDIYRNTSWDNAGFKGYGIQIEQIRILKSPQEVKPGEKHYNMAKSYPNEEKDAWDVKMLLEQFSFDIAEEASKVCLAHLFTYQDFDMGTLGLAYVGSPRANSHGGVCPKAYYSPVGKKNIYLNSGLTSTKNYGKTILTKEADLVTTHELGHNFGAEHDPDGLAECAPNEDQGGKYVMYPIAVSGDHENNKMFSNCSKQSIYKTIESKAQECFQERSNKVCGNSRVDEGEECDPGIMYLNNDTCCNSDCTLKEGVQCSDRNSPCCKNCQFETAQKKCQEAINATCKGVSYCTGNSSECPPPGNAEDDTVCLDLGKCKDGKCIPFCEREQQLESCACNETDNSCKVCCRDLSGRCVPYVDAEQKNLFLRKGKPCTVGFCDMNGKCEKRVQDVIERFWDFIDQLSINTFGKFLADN
Experimental: as §1, §2, §3

[10] = biological target: T2, human ADAM 9 catalytic/disintegrin …; experiment: enzyme inhibition, fluorescent peptide substrate
Experimental: as §3
Calculation of inhibition constants. The amount of activity was calculated by subtracting the ADAM 10 prodomain control from the ADAM 10 prodomain with enzyme. All inhibition assays were performed at room temperature and the data fit to the following equation using Sigma Plot software: […]

[11] = biological target: T2, human ADAM 9 catalytic/disintegrin …; experiment: enzyme inhibition, fluorescent peptide substrate; remark: listed apart in the source
Experimental: as §1, §2, §3

[12] = biological target: T1, Human ADAM10 protease containing the …; experiment: enzyme inhibition, fluorescent peptide substrate; fit to a pure competitive model
Experimental: ADAM 10 protein was diluted 1:100 in buffer 25 mM Tris pH 8, 0.0006% Brij-35 and then 10 μl was added to 88 μl of substrate (20-100 μM), Dabcyl-LAQAHomoPheRSC(Fluorescein)-NH₂ with excitation 485 nm and emission 530 nm. Prodomain, 2 μl, in 25 mM Tris, pH 8, 100 mM NaCl, 10% glycerol, 0.1% mercaptoethanol, and 50 μM CaCl₂ was added to substrate before addition of enzyme. The final concentration of prodomain ranged from 17-170 nM. The fluorescence vs time was plotted, and slopes were taken from straight line fits of initial velocities. The reciprocal of the velocities was plotted vs the reciprocal of substrate squared since the normal Lineweaver Burke plot gave curved lines. The initial velocities vs substrate concentrations were fit as a family of curves to several allosteric models. The data fit best to a pure competitive model as described in the following equation where binding of inhibitor prevents substrate from binding to both sites: […]

[13] = biological target: T3, ADAM 8 catalytic domain (mouse); experiment: enzyme inhibition, fluorescamine assay with Dnp peptide substrate
Experimental: Inhibition assays with ADAM 8. The ADAM 8 catalytic domain was expressed and purified from E. coli as described (22). A substrate based on the L-selectin cleavage site, Dnp-INorIeu[…]-NH₂ (SEQ ID NO 20), was used to monitor enzyme activity with a fluorescamine assay. From a concentrated 50 mM solution in DMSO, the substrate was diluted 1:500 in 25 mM HEPES, pH 8.0, 0.0006% Brij-35. To 100 μl of diluted substrate was added either 5 μl of buffer (Tris, pH 8.0, 150 mM KCl) or 5 μl of ADAM10 prodomain (1-10 μM). Zero time points were taken by diluting 12.5 μl of the reaction mixture into 100 μl of fluorescamine buffer (50 mM HEPES, pH 8.0, 0.2 M NaCl, 0.01 M CaCl₂, 0.01% Brij-35) in a 96-well black-coated plate. Before measuring fluorescence, 3 μl of a 1% solution of fluorescamine in DMSO was added to each well. The plate was allowed to incubate for 10 min in the dark before measuring fluorescence (excitation wavelength at 390 nm, emission wavelength at 485 nm). For assays with TACE and ADAM8 prodomains, a fluorescent substrate was used to monitor activity at concentrations of prodomains ranging from 1-4.7 μM.
Calculation of inhibition constants. The amount of activity was calculated by subtracting the ADAM 10 prodomain control from the ADAM 10 prodomain with enzyme. […]

Binder	Ki [1] [µM]	Ki [2] [µM]	Ki [3] [µM]	Ki [4] [µM]	Ki [5] [µM]	Ki [6] [µM]	Ki [7] [µM]	Ki [8] [µM]	Ki [9] [µM]	Ki [10] [µM]	Ki [11] [µM]	Ki [12] [µM]	Ki [13] [µM]
wt ProADAM 10 23-213 (N-terminal His tag) (other, Expressed in E. coli, purified on Ni-NTA and Superdex-75; the wild type has Cys there; not shown: N-terminal His tag and leader encoded by the pRSET vector (insert at BamHI/EcoRI)) NPLNKYIRHYEGLSYNVDSLHQKHQRAKRAVSHEDQFLLLDFHAHGRQFNLRMKRDTSLFSDEFKVETSNKVPDYDTSHIYTGHIYGEEGSFSHGSVIDGRFEGFIKTRGGTFYIEPAERYIKDRILPFHSVIYHEDDINYPHKYGPQGGCADHSVFERMRKYQMTGVEEGARAHPEKHAASSGPELLRKK	> 2	> 2	> 2	> 2	> 2	> 11	> 2	0.075	> 3	–	–	–	–
wt ProADAM 10 23-213 (C-terminal His tag) (other, the wild type has Cys there) NPLNKYIRHYEGLSYNVDSLHQKHQRAKRAVSHEDQFLLLDFHAHGRQFNLRMKRDTSLFSDEFKVETSNKVPDYDTSHIYTGHIYGEEGSFSHGSVIDGRFEGFIKTRGGTFYIEPAERYIKDRILPFHSVIYHEDDINYPHKYGPQGGCADHSVFERMRKYQMTGVEEGARAHPEKHAASSGPELLRKKHHHHHH	–	–	–	–	–	> 11	–	–	> 10	~1	> 1	0.048	> 10
